Source: PMC4823152
Where two headings read alike, the source gives them in different places.

What was measured:
Test in all cases: cryo-EM structure
[1] = molecular target: φEL chaperonin (gene product 146 of Pseudomonas phage EL) (Pseudomonas phage EL)
[2] = molecular target: φEL chaperonin (gene product 146 of Pseudomonas phage EL) (Pseudomonas phage EL); remark: listed apart in the source
[3] = molecular target: φEL chaperonin (gene product 146 of Pseudomonas phage EL) (Pseudomonas phage EL); remark: listed apart in the source

“φEL chaperonin (gene product 146 of Pseudomonas phage EL) (natural protein)” gave a stoichiometry N [1] of 14, a stoichiometry N [2] of 7 and a stoichiometry N [3] of 14.
